These results are taken from patent US20010052137.

Series [1] relates to T1, Myc-tagged GID-3 construct of Xaxin (amino acid residues 320-375).
T1 sequence: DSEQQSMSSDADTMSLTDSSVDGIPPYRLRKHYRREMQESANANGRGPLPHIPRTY

Series [2] relates to T2, Myc-tagged GID-2 construct of Xaxin (amino acid residues 320-429).
T2 sequence: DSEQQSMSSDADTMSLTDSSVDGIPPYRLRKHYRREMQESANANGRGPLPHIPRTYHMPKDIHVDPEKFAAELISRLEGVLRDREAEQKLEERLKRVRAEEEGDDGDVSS

The test system of series [3] is T3, Myc-tagged GID-5 construct of Xaxin (amino acid residues 380-429).
T3 sequence: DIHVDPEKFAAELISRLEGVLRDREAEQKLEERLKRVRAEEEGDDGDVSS

For series [4], the system named is T4, Myc-tagged GID-4 construct of Xaxin (amino acid residues 350-429).
T4 sequence: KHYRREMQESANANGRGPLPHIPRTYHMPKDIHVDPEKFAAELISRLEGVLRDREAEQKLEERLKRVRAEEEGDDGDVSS

Series [5] has as its system T5, Myc-tagged GID-6 construct of Xaxin (amino acid residues 380-404).
T5 sequence: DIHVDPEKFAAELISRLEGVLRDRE

The test system of series [6] is T6, GID-2/his fusion protein (Xaxin amino acid residues 320-429 with His-epitope tag, from E. coli).
T6 sequence: T2 sequence

Turning to “GSK-3 beta (glycogen synthase kinase-3 beta) expressed in Xenopus oocytes”, the “GSK-3 beta mediated tau phosphorylation in Xenopus oocytes” value in series [1] was “did not bind GSK-3 beta and had no effect on GSK-3 beta activity”; in series [2], “bound GSK-3 beta and inhibited GSK-3 beta mediated tau phosphorylation”; in series [3], “bound GSK-3 beta and inhibited GSK-3 beta mediated tau phosphorylation”; in series [4], “bound GSK-3 beta and inhibited GSK-3 beta mediated tau phosphorylation”; in series [5] it was “bound GSK-3 beta and inhibited GSK-3 beta mediated tau phosphorylation”.
For “Recombinantly-produced GSK-3 beta protein (New England Biolabs)”, in series [6], the “GSK-3 beta mediated phosphorylation of the GS-2 peptide derived from glycogen synthase, in vitro” value is recorded as “GID-2/his exhibited no significant effect on GSK-3 beta mediated phosphorylation of the GS-2 peptide” and the “phosphorylation of tau by GSK-3 beta, in vitro” value is “GID-2/his also did not inhibit phosphorylation of tau by GSK-3 beta, even when GID-2/his was present at a 200-fold molar excess”.
